From patent publication US20250326851A1 (Bayer, published 2025)
Where “and” joins values, the source holds several entries; their conditions need not be identical. Equal values may be shown once.

How the values were obtained:
[1] = biological target: T1, mouse CCR8 on HEK293 cells (mouse, UniProt P56484 1-353); assay: cell-based or functional assay
T1 sequence (looked up): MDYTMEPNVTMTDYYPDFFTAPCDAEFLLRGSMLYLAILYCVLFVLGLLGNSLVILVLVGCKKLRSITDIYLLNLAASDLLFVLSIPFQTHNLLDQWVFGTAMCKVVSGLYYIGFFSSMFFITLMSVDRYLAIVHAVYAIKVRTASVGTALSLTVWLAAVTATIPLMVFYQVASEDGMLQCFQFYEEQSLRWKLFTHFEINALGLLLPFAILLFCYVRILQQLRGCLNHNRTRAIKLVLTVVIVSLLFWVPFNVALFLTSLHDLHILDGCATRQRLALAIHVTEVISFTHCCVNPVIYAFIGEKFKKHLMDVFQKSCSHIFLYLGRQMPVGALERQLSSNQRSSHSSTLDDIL

Mouse FcγRIIIB/CD16b = biological target: T2, Mouse FcγRIIIB/CD16b (mouse); assay: SPR; approximation, saturation not reached
T2 construct: The printed name is that of a human receptor; kept as printed; also called mFcγR variant
Procedure: (§1) The binding of murine surrogate antibodies to mouse Fc receptor variants (mFcγR and mFcRn) was analyzed by SPR.

[2] = biological target: T3, Mouse FcγRIIA/CD32a (R167) (mouse); assay: SPR; approximation, saturation not reached
T3 construct: The printed name is that of a human receptor allotype; kept as printed; also called mFcγR variant
Procedure: as §1

[3] = biological target: T1, mouse CCR8 on HEK293 cells; assay: flow cytometry, mouse CCR8-expressing HEK293 cells; reference TPP-15285
Procedure: (§2) The binding properties of murine surrogate antibodies were assessed using flow cytometry on HEK293 cells ectopically expressing murine CCR8.

[4] = biological target: T1, mouse CCR8 on HEK293 cells; assay: flow cytometry on murine CCR8-transfected HEK293 cells
Procedure: as §2

Mouse FcRn = biological target: T4, Mouse FcRn (mouse, UniProt Q61559 22-297; P01887 21-119); assay: SPR
T4 construct: also called mFcRn; murine FcRn
T4 sequence (looked up) 1: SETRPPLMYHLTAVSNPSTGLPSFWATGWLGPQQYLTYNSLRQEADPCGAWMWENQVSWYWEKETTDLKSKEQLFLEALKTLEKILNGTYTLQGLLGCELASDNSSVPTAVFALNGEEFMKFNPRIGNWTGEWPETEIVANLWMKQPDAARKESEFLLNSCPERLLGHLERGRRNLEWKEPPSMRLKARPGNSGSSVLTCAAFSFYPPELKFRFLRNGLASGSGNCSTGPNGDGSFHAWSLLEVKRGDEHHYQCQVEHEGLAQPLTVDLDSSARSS
T4 sequence (looked up) 2: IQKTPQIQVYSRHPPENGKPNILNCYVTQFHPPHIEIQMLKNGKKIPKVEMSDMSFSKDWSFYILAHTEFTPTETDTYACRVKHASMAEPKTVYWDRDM
Procedure: as §1

Mouse FcγRIV/CD16-2 = biological target: T5, Mouse FcγRIV/CD16-2 (mouse, UniProt A0A0B4J1G0 21-203); assay: SPR
T5 construct: also called mFcγR variant
T5 sequence: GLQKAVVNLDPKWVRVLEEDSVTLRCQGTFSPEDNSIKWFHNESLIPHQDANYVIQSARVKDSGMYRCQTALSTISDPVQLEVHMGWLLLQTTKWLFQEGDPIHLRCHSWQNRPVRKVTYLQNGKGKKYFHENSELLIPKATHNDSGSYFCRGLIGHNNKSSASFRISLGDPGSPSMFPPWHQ
Procedure: as §1

[5] = biological target: T1, mouse CCR8 on HEK293 cells; assay: cell-based or functional assay; remark: listed apart in the source
human CCR8 [6] = biological target: T6, human CCR8 (human, UniProt P51685 1-355); assay: cell-based or functional assay
T6 sequence (P51685 whole entry): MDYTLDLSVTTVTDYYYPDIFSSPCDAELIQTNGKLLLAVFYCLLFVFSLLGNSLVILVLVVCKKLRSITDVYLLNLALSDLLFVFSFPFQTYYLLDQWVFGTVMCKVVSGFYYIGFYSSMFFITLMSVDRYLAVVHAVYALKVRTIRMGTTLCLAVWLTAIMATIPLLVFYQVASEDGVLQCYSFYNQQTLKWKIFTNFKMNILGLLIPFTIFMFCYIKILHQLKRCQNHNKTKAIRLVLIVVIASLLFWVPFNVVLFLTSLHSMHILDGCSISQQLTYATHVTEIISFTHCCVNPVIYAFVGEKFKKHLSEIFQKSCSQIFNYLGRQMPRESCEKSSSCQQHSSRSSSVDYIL

human CCR8 [7] = biological target: T6, human CCR8; assay: cell-based or functional assay; remark: listed apart in the source
human CCR8 [8] = biological target: T6, human CCR8; assay: flow cytometry using HEK293 cells, 0.0046 to 10 µg/mL (selectivity study)

B1: TPP-29338 (short half-life) (antibody, mouse IgG2a)
heavy: EVQLLESGGGLVQPGGSLRLSCAASGFTFSDYGVHWVRQAPGKGLEWVSGVSWNGSRTHYADSVKGRFTISRDNSKNTLYLQMNSLRAEDTAVYYCVTRGAWGQGTLVTVSSAKTTAPSVYPLAPVCGDTTGSSVTLGCLVKGYFPEPVTLTWNSGSLSSGVHTFPAVLQSDLYTLSSSVTVTSSTWPSQSITCNVAHPASSTKVDKKIEPRGPTIKPCPPCKCPAPNLLGGPSVFIFPPKIKDVLMISLSPIVTCVVVDVSEDDPDVQISWFVNNVEVHTAQTQTHREDYNSTLRVVSALPIQANDWMSGKEFKCKVNNKDLPAPIERTISKPKGSVRAPQVYVLPPPEEEMTKKQVTLTCMVTDFMPEDIYVEWTNNGKTELNYKNTEPVLDSDGSYFMYSKLRVEKKNWVERNSYSCSVVHEGLAQHHTTKSFSRTPGK
light: QSVLTQPPSASGTPGQRVTISCSGSSFNIGSHFVYWYQQLPGTAPKLLIYKNNQRPSGVPDRFSGSKSGTSASLAISGLRSEDEADYYCAAWDDSLNGPVFGGGTKLTVLGQPKSSPSVTLFPPSSEELETNKATLVCTITDFYPGVVTVDWKVDGTPVTQGMETTQPSKQSNNKYMASSYLTLTARAWERHSSYSCQVTHEGHTVEKSLSRADCS
For B1, the “cumulative ADCP EC50 (ng/mL), 4 hours; mouse CCR8-expressing HEK293 cells, mouse M2 macrophages” value [1] was 74.3 ng/mL, the “cumulative ADCP EC50 (ng/mL), 12 hours; mouse CCR8-expressing HEK293 cells, mouse M2 macrophages” value [1] was 28.3 ng/mL and the “cumulative ADCP EC50 (pM), 4 hours; mouse CCR8-expressing HEK293 cells, mouse M2 macrophages” value [1] was 518 pM. The “cumulative ADCP EC50 (pM), 12 hours; mouse CCR8-expressing HEK293 cells, mouse M2 macrophages” value [1] was 197 pM, the Kd (Mouse FcγRIIIB/CD16b) was ~19000 nM and the Kd [2] was ~12000 nM. For the same binder, the “fold higher affinity compared to TPP-15825” value [3] was 10 fold, the EC50 [4] was 0.495 nM and 0.071 µg/mL and the binding result (Mouse FcRn) was “no binding (tested: 15.6 to 2,000 nM (FcRn assay))”. For the same binder, the Kd (Mouse FcγRIV/CD16-2) was 1400 nM, the “ADCC EC50 (ng/mL) at 20 hours; mouse CCR8-expressing HEK293 cells, mouse NK cells” value [5] was 1.33 ng/mL and the “ADCC EC50 (pM) at 20 hours; mouse CCR8-expressing HEK293 cells, mouse NK cells” value [5] was 9.28 pM.

B2: TPP-15285 (normal half-life) (antibody, V domains shown)
VH: EVQLLESGGGLVQPGGSLRLSCAASGFTFSDYGVHWVRQAPGKGLEWVSGVSWNGSRTHYADSVKGRFTISRDNSKNTLYLQMNSLRAEDTAVYYCVTRGAWGQGTLVTVSS
VL: not shown
notes: Anti-mouse CCR8 antibody, human VH/VL chimerized to mIgG2a (lambda)
In the case of B2, the “cumulative ADCP EC50 (ng/mL), 4 hours; mouse CCR8-expressing HEK293 cells, mouse M2 macrophages” value [1] is reported as 54.5 ng/mL, the “cumulative ADCP EC50 (ng/mL), 12 hours; mouse CCR8-expressing HEK293 cells, mouse M2 macrophages” value [1] is reported as 22.7 ng/mL and the “cumulative ADCP EC50 (pM), 4 hours; mouse CCR8-expressing HEK293 cells, mouse M2 macrophages” value [1] is reported as 380 pM. The “cumulative ADCP EC50 (pM), 12 hours; mouse CCR8-expressing HEK293 cells, mouse M2 macrophages” value [1] was 158 pM, the EC50 [4] was 12.5 nM and 1.8 µg/mL and the “ADCC EC50 (ng/mL) at 20 hours; mouse CCR8-expressing HEK293 cells, mouse NK cells” value [5] was 32.6 ng/mL. The “ADCC EC50 (pM) at 20 hours; mouse CCR8-expressing HEK293 cells, mouse NK cells” value [5] was 227 pM.

B3: TPP-23411 (afucosylated) (antibody, human IgG1, lambda, V domains shown)
VH: EVQLLESGGGLVQPGGSLRLSCAASGFTFSSYGMHWVRQAPGKGLEWVSAINWNGGSTGYADSVKGRFTISRDNSKNTLYLQMNSLRAEDTAVYYCARGHHSGYDGRFFDYWGQGTLVTVSS
VL: QSVLTQPPSVSGAPGQRVTISCTGSSSNIGAGYNVHWYQQLPGTAPKLLIYTNNRRPSGVPDRFSGSKSGTSASLAISGLRSEDEADYYCAAWDASLSGWVFGGGTKLTVLG
modifications: afucosylated Fc glycan
notes: Fully human IgG1 lambda; In the ADA bridging assay it was biotinylated or SULFO-tagged; also called 21360-hIgG1wtlambda; anti-human CCR8 antibody hIgG1 isotype (afucosylated)
For B3, the “ADCP EC50; Tregs, donor 1100 (63% CCR8 expression), human M2c macrophages” value (human CCR8 [6]) was 0.143 nM, the “ADCP EC50; Tregs, donor 1163 (40% CCR8 expression), human M2c macrophages” value (human CCR8 [6]) was 0.44 nM and the “ADCC EC50; HEK-hCCR8 target cells, NK92V effector cells” value (human CCR8 [7]) was 0.0128 nM. The “ADCC EC50; Tregs, donor 1100 (85.0% CCR8 expression), NK92V effector cells” value (human CCR8 [7]) was 0.0281 nM, the “ADCC EC50; Tregs, donor 1163 (31.4% CCR8 expression), NK92V effector cells” value (human CCR8 [7]) was 0.0559 nM and the EC50 (human CCR8 [8]) was 0.129 µg/mL.

B4: TPP-23411 (wild-type) (antibody, human IgG1, lambda, V domains shown)
VH: EVQLLESGGGLVQPGGSLRLSCAASGFTFSSYGMHWVRQAPGKGLEWVSAINWNGGSTGYADSVKGRFTISRDNSKNTLYLQMNSLRAEDTAVYYCARGHHSGYDGRFFDYWGQGTLVTVSS
VL: QSVLTQPPSVSGAPGQRVTISCTGSSSNIGAGYNVHWYQQLPGTAPKLLIYTNNRRPSGVPDRFSGSKSGTSASLAISGLRSEDEADYYCAAWDASLSGWVFGGGTKLTVLG
modifications: conventional (fucosylated) glycosylation
In the case of B4, the “ADCP EC50; Tregs, donor 1100 (63% CCR8 expression), human M2c macrophages” value (human CCR8 [6]) is reported as 0.155 nM, the “ADCP EC50; Tregs, donor 1163 (40% CCR8 expression), human M2c macrophages” value (human CCR8 [6]) is reported as 0.148 nM and the “ADCC EC50; HEK-hCCR8 target cells, NK92V effector cells” value (human CCR8 [7]) is reported as 0.0702 nM.
